The source of these data is EP4480965A1, “TRANSFERRIN RECEPTOR-BINDING MOLECULES, CONJUGATES THEREOF AND THEIR USES TO PREVENT OR TREAT CNS DISEASES” (Vect-Horus, priority 2023, dated 2024).

Assay [1] addresses mouse transferrin receptor fused to EGFP, expressed on CHO cells (mouse) (UniProt Q62351). Description: cell-based assay on mTfR, apparent Kd.
Assay [2] concerns the target murine TfR expressed by murine neuroblastoma Neuro-2a cells (mouse) (UniProt Q62351). Description: cell-based or functional assay.

Chain of murine TfR expressed by murine neuroblastoma Neuro-2a cells (mouse) (Q62351 whole entry): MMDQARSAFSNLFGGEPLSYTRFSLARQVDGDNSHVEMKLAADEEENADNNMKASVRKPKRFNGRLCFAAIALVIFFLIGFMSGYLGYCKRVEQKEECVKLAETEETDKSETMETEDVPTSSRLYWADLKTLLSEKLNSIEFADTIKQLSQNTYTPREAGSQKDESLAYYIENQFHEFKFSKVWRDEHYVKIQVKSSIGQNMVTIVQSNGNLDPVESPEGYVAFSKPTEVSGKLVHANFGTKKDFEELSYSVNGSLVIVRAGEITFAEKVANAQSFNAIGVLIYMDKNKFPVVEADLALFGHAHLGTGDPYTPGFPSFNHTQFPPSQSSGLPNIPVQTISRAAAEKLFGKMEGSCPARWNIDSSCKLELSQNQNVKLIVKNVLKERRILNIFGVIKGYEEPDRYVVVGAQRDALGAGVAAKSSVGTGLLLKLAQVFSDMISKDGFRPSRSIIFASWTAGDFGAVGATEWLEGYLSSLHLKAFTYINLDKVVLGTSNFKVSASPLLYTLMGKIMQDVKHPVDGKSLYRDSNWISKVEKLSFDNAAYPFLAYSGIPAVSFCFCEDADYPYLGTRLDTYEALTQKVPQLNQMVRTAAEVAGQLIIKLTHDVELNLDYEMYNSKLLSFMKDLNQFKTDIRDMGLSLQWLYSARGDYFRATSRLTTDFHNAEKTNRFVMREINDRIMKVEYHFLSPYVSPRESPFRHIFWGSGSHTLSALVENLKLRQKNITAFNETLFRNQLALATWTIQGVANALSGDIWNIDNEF
Chain of mouse transferrin receptor fused to EGFP, expressed on CHO cells (mouse) (Q62351 whole entry, the tested form may be a part): as the sequence (Q62351 whole entry) above

B1: B8h1-NT(8-13) (protein, part only; not given: nothing essential, part only)
chain, part: EVQLVESGGGVVQPGGSLRLSCAASGEIFSINFMRWYRQAPGKGLEWVAGFTRDGSTNYPDSVKGRFTISRDNAKNTVYLQMNSLRPEDTAVYYCYMLDTWGQGTQVTVSSHHHHHHGGGGSGGGGS
As to B1, the Kd in assay [1] was determined as 2.8 nM.

B2: C5-hFc-siSOD1m-5'VP (protein, part only; not given: Fc knob and hole arms, siRNA, part only)
chain, part: EVQLVESGGGVVQPGGSLKLSCVASGTDFSINFIRWYRQAPGKQREFVAGFTATGNTNYADSMKGRFTISRDNTKNAVYLQIDSLKPEDTAVYYCYMLDKWGQGTQVTVSSAAAEQKLISEEDLNGAAHHHHHHGS
Take B2: the mean IC50 of mSOD1 mRNA downregulation, free uptake on Neuro-2a cells in assay [2] amounted to 8.7 nM.
